Laboratory results from patent US20250074980A1 (BRIGHAM AND WOMEN S HOSPITAL, published 2025).
Where a chain is given by its changes, count along the chain named. Numbers in names are those of the source.

T1: His-tagged CEACAM1 (human, UniProt P13688 35-428)
T1 construct: 45 kDa SPR analyte; also called CEACAM1-HIS; CEACAM1 analyte
T1 sequence: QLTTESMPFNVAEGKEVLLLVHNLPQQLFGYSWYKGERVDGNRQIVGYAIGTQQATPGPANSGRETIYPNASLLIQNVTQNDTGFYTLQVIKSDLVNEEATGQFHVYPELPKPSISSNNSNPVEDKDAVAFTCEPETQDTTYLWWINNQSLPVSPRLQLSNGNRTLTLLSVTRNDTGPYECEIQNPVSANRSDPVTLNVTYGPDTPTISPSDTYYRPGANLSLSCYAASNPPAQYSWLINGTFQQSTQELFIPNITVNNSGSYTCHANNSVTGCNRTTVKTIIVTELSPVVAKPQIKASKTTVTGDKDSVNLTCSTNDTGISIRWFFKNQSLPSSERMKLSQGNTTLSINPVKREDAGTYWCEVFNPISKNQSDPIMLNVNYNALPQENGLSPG

B1: CP08G10/Vκ8 S29A (antibody, IgG4, V domains shown)
VH: EVQLLESGGGLVQPGGSLRLSCAASGFIFSSHGMSWVRQAPGKGLEWVATISSGGTYTYYPDSVKGRFTISRDNSKNTLYLQMNSLKAEDTAMYYCARHDFDYFPAWFAFWGQGTLVTVSS
VL: EIVLTQSPATLSLSPGERATLSCRANSAVSYMYWYQQKPGQAPRPWIYLTSNRATGVPARFSGSGSGTDYTLTISSLEPEDFAVYYCQQWSSNPPTFGQGTKLEIK
notes: IgG4 (S241P), kappa
B2: CP08H01/Vκ8 S29A (antibody, IgG4, V domains shown)
VH: B1 VH with R98K, D100P, F101P, P105A, F110Y
VL: B1 VL
notes: IgG4 (S241P), kappa
B3: CP09F03/Vκ8 S29A (antibody, IgG4, V domains shown)
VH: B1 VH with I28T, S30N, S31N, F104D, P105A, F110Y
VL: B1 VL
notes: IgG4 (S241P), kappa
B4: CP09E05/Vκ8 S29A (antibody, IgG4, V domains shown)
VH: B1 VH with D100G, F104D, P105A, F110Y
VL: B1 VL
notes: IgG4 (S241P), kappa
B5: CP09D03/Vκ8 S29A (antibody, IgG4, V domains shown)
VH: B1 VH with I28T, G33A, M34I, F104D, P105A, F110Y
VL: B1 VL
notes: IgG4 (S241P), kappa
B6: CP09G03/Vκ8 S29A (antibody, IgG4, V domains shown)
VH: B1 VH with I28T, S30N, S31A, G33A, F104D, P105A, F110Y
VL: B1 VL
notes: IgG4 (S241P), kappa
B7: VH1/CP08G01 (antibody, IgG4, V domains shown)
VH: B1 VH with F104D, P105A, F110Y
VL: B1 VL with W90N, S91T, S92N, N93L, P95F
notes: IgG4 (S241P), kappa
B8: CP09C02/Vκ8 S29A (antibody, IgG4, V domains shown)
VH: B1 VH with G26E, I28T, S31D, G33A, D100G, F104D, P105A, F110Y
VL: B1 VL
notes: IgG4 (S241P), kappa
B9: VH1/CP08G02 (antibody, IgG4, V domains shown)
VH: B1 VH with F104D, P105A, F110Y
VL: B1 VL with S91T, S92N
notes: IgG4 (S241P), kappa
B10: CP09A04/Vκ8 S29A (antibody, IgG4, V domains shown)
VH: B1 VH with I28S, S30N, S31A, G33A, F104D, P105A, F110Y
VL: B1 VL
notes: IgG4 (S241P), kappa
B11: CP09B02/Vκ8 S29A (antibody, IgG4, V domains shown)
VH: B1 VH with I28T, S30T, G33A, M34I, F104D, P105A, F110Y
VL: B1 VL
notes: IgG4 (S241P), kappa
B12: VH1/CP09F05 (antibody, IgG4, V domains shown)
VH: B1 VH with F104D, P105A, F110Y
VL: B1 VL with W90N, S91T, S92A, N93L, P95F
notes: IgG4 (S241P), kappa
B13: CP09E03/Vκ8 S29A (antibody, IgG4, V domains shown)
VH: B1 VH with I28T, S31A, G33A, M34I, F104D, P105A, F110Y
VL: B1 VL
notes: IgG4 (S241P), kappa
B14: CP09B03/Vκ8 S29A (antibody, IgG4, V domains shown)
VH: B1 VH with I28T, S30N, S31A, G33A, M34I, F104D, P105A, F110Y
VL: B1 VL
notes: IgG4 (S241P), kappa
B15: CP09B03/CP08G09 (antibody, IgG4, V domains shown)
VH: B1 VH with I28T, S30N, S31A, G33A, M34I, F104D, P105A, F110Y
VL: B1 VL with S91T, S92A, N93F
notes: IgG4 (S241P), kappa
B16: CP09C02/CP08D02 (antibody, IgG4, V domains shown)
VH: B1 VH with G26E, I28T, S31D, G33A, D100G, F104D, P105A, F110Y
VL: B1 VL with S91T, N93F
notes: IgG4 (S241P), kappa
B17: CP09E05/CP08E01 (antibody, IgG4, V domains shown)
VH: B1 VH with D100G, F104D, P105A, F110Y
VL: B1 VL with S91T, S92T, N93F
notes: IgG4 (S241P), kappa
B18: CP09E05/CP08E05 (antibody, IgG4, V domains shown)
VH: B1 VH with D100G, F104D, P105A, F110Y
VL: B1 VL with S91T, S92T
notes: IgG4 (S241P), kappa
B19: CP09B03/CP08F05 (antibody, IgG4, V domains shown)
VH: B1 VH with I28T, S30N, S31A, G33A, M34I, F104D, P105A, F110Y
VL: B1 VL with S91T
notes: IgG4 (S241P), kappa
B20: CP09E05/CP08D02 (antibody, IgG4, V domains shown)
VH: B1 VH with D100G, F104D, P105A, F110Y
VL: B1 VL with S91T, N93F
notes: IgG4 (S241P), kappa
B21: CP09B03/CP08D02 (antibody, IgG4, V domains shown)
VH: B1 VH with I28T, S30N, S31A, G33A, M34I, F104D, P105A, F110Y
VL: B1 VL with S91T, N93F
notes: IgG4 (S241P), kappa
B22: CP09C02/CP08E01 (antibody, IgG4, V domains shown)
VH: B1 VH with G26E, I28T, S31D, G33A, D100G, F104D, P105A, F110Y
VL: B1 VL with S91T, S92T, N93F
notes: IgG4 (S241P), kappa
B23: CP09E05/CP08F05 (antibody, IgG4, V domains shown)
VH: B1 VH with D100G, F104D, P105A, F110Y
VL: B1 VL with S91T
notes: IgG4 (S241P), kappa
B24: CP09B03/CP08E01 (antibody, IgG4, V domains shown)
VH: B1 VH with I28T, S30N, S31A, G33A, M34I, F104D, P105A, F110Y
VL: B1 VL with S91T, S92T, N93F
notes: IgG4 (S241P), kappa
B25: CP09E05/CP08G09 (antibody, IgG4, V domains shown)
VH: B1 VH with D100G, F104D, P105A, F110Y
VL: B1 VL with S91T, S92A, N93F
notes: IgG4 (S241P), kappa
B26: CP09C02/CP08G09 (antibody, IgG4, V domains shown)
VH: B1 VH with G26E, I28T, S31D, G33A, D100G, F104D, P105A, F110Y
VL: B1 VL with S91T, S92A, N93F
notes: IgG4 (S241P), kappa

Target: T1, His-tagged CEACAM1
Assay: SPR single-cycle, supernatant IgG captured
Protocol: In order to assess the binding of the humanized, affinity matured reformatted lead IgGs, single-cycle kinetics analysis was performed on crude supernatants using a Biacore T200 running Biacore T200 Control Software V2.0.1 and Biacore T200 Evaluation Software V3.0. Antibodies were diluted in HBS-P+ to a final concentration of 0.5 μg/ml. At the start of each cycle, antibodies were loaded onto Fc2, Fc3 and Fc4 of the Protein A chip. IgGs were captured at a flow rate of 10 μl/min to give an immobilisation level (RL) of ˜100 RU (a level calculated to obtain a Rₘₐₓ of ˜50-150 RU once the analyte is bound). The surface was then allowed to stabilize. Single-cycle kinetics data was obtained with CEACAM1 as the analyte at a flow rate of 80 μl/min to minimize any potential mass transfer effects. Multiple repeats with the parent (VH1/Vκ8 S29A) antibody were performed to check the stability of the surface and analyte over the kinetic cycles. The signal from the reference channel Fc1 (no antibody) was subtracted from that of Fc2, Fc3 and Fc4 to correct for differences in non-specific binding to the reference surface. A three point, two-fold dilution range from 70 nM to 280 nM CEACAM1 without regeneration between each concentration was used. The signal from each antibody blank run (no CEACAM1) was subtracted to correct for differences in surface stability. The association phase for the three injections of increasing concentrations of CEACAM1 was monitored for 80 seconds each time and a single dissociation phase was measured for 150 seconds following the last injection of CEACAM1. Regeneration of the Protein A surface was conducted using two injections of 10 mM glycine-HCL pH 1.5 followed by a stabilization period of 250 seconds.

Row | Kd | koff | kon | relative KD to parent | Binder
1 | 630 nM | 0.055 s⁻¹ | 87000 M⁻¹ s⁻¹ | 0.9 | B1
2 | 420 nM | 0.087 s⁻¹ | 210000 M⁻¹ s⁻¹ | 1.3 | B2
3 | 1000 nM | 0.076 s⁻¹ | 74000 M⁻¹ s⁻¹ | 0.5 | B3
4 | 320 nM | 0.037 s⁻¹ | 120000 M⁻¹ s⁻¹ | 1.4 | B4
5 | 310 nM | 0.033 s⁻¹ | 110000 M⁻¹ s⁻¹ | 1.8 | B5
6 | 350 nM | 0.038 s⁻¹ | 110000 M⁻¹ s⁻¹ | 1.5 | B6
7 | 400 nM | 0.047 s⁻¹ | 120000 M⁻¹ s⁻¹ | 1.5 | B7
8 | 88 nM | 0.017 s⁻¹ | 200000 M⁻¹ s⁻¹ | 7.1 | B8
9 | 2300 nM | 0.052 s⁻¹ | 23000 M⁻¹ s⁻¹ | 0.3 | B9
10 | 400 nM | 0.036 s⁻¹ | 90000 M⁻¹ s⁻¹ | 1.4 | B10
11 | 340 nM | 0.04 s⁻¹ | 120000 M⁻¹ s⁻¹ | 1.6 | B11
12 | 1600 nM | 0.055 s⁻¹ | 35000 M⁻¹ s⁻¹ | 0.4 | B12
13 | 400 nM | 0.037 s⁻¹ | 110000 M⁻¹ s⁻¹ | 1.6 | B13
14 | 260 nM | 0.039 s⁻¹ | 150000 M⁻¹ s⁻¹ | 2.4 | B14

Target: T1, His-tagged CEACAM1
Assay: SPR single-cycle, supernatant IgG captured
Remark: another data set of the same source
In short: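 Antibody IgG was produced by transient PEI transfection of HEK EBNA cells in 6-well plates, with supernatants collected 5-7 days later, quantified by ELISA and filtered. Binding was measured by single-cycle surface plasmon resonance on a Biacore T200 at 25° C in HBS-P+ (pH 7.4), capturing IgG on Protein A and flowing His-tagged CEACAM1 as analyte. Kon, koff and Kd were obtained by fitting, and relative KD was expressed against the parent antibody tested in the same experiment.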

Row | Kd | koff | kon | relative KD to parent | Binder
15 | 300 nM | 0.037 s⁻¹ | 130000 M⁻¹ s⁻¹ | 1.9 | B15
16 | 140 nM | 0.022 s⁻¹ | 160000 M⁻¹ s⁻¹ | 4 | B16
17 | 300 nM | 0.035 s⁻¹ | 120000 M⁻¹ s⁻¹ | 1.8 | B4
18 | 170 nM | 0.019 s⁻¹ | 110000 M⁻¹ s⁻¹ | 3.3 | B8
19 | 320 nM | 0.041 s⁻¹ | 130000 M⁻¹ s⁻¹ | 1.7 | B17
20 | 200 nM | 0.02 s⁻¹ | 100000 M⁻¹ s⁻¹ | 2.8 | B18
21 | 150 nM | 0.017 s⁻¹ | 110000 M⁻¹ s⁻¹ | 3.6 | B19
22 | 330 nM | 0.074 s⁻¹ | 230000 M⁻¹ s⁻¹ | 1.7 | B20
23 | 290 nM | 0.059 s⁻¹ | 210000 M⁻¹ s⁻¹ | 1.9 | B21
24 | 140 nM | 0.02 s⁻¹ | 140000 M⁻¹ s⁻¹ | 3.9 | B22
25 | 300 nM | 0.052 s⁻¹ | 170000 M⁻¹ s⁻¹ | 1.8 | B14
26 | 250 nM | 0.034 s⁻¹ | 140000 M⁻¹ s⁻¹ | 2.2 | B23
27 | 250 nM | 0.046 s⁻¹ | 180000 M⁻¹ s⁻¹ | 2.2 | B24
28 | 320 nM | 0.043 s⁻¹ | 140000 M⁻¹ s⁻¹ | 1.8 | B25
29 | 140 nM | 0.018 s⁻¹ | 130000 M⁻¹ s⁻¹ | 3.9 | B26
